These results are taken from PMC9768450.

Holding throughout (experiment): purified protein
The test system of data set [1] is CCC(=O)SCCNC(=O)CCNC(=O)[C@H](O)C(C)(C)COP(=O)(O)OP(=O)(O)OC[C@H]1O[C@@H](n2cnc3c(N)ncnc32)[C@H](O)[C@@H]1OP(=O)(O)O. The conditions noted are these: co-substrate acetate 20 mM, 100 mM Tris-HCl pH 7.8, 5 mM MgCl2, 5 mM DTT, 55 °C.
In a further data set the test system is O=C(O)CCCO. The conditions noted are these: co-substrate acetyl-CoA 1 mM, 100 mM Tris-HCl pH 7.8, 5 mM MgCl2, 5 mM DTT, 55 °C.
Data set [2] concerns CC(C)(COP(=O)(O)OP(=O)(O)OC[C@H]1O[C@@H](n2cnc3c(N)ncnc32)[C@H](O)[C@@H]1OP(=O)(O)O)[C@@H](O)C(=O)NCCC(=O)NCCSC(=O)CCC(=O)O. The conditions noted are these: co-substrate propionate 20 mM, 100 mM Tris-HCl pH 7.8, 5 mM MgCl2, 5 mM DTT, 55 °C.
Another data set deals with CCC(=O)O. The conditions noted are these: co-substrate acetyl-CoA 2 mM, 100 mM Tris-HCl pH 7.8, 5 mM MgCl2, 5 mM DTT, 55 °C.
Data set [3] deals with CC(=O)SCCNC(=O)CCNC(=O)[C@H](O)C(C)(C)COP(=O)(O)OP(=O)(O)OC[C@H]1O[C@@H](n2cnc3c(N)ncnc32)[C@H](O)[C@@H]1OP(=O)(O)O. The conditions noted are these: co-substrate succinate 40 mM, 100 mM Tris-HCl pH 7.8, 5 mM MgCl2, 5 mM DTT, 55 °C.

Usually Km stands for the substrate concentration at which the rate is half of its maximum. The term Vmax denotes the rate approached at saturating substrate. Usually kcat/Km stands for the turnover number divided by the Michaelis constant. Take “succinyl-CoA:acetate CoA-transferase encoded by the AHF96498 gene (AHF96498 gene product) (Desulfurella acetivorans A63)”: the Km in data set [1] stood at 1100 ± 300 µM; with O=C(O)CCCO, 400 ± 100 µM; in data set [2], 1200 ± 300 µM; in the data set with CCC(=O)O, 3900 ± 800 µM; in data set [3] it was 200 ± 40 µM. Moreover, the maximal velocity (Vmax) is 669 µmol/min/mg in data set [1], 7.7 µmol/min/mg with O=C(O)CCCO, 875 µmol/min/mg in the data set with CCC(=O)O and 90 µmol/min/mg in data set [3]. Moreover, the kcat/Km in data set [1] was 584000 M⁻¹ s⁻¹; with O=C(O)CCCO, 24000 M⁻¹ s⁻¹; in data set [2] it was 14000 M⁻¹ s⁻¹; in the data set on CCC(=O)O, 223000 M⁻¹ s⁻¹; in data set [3], 534000 M⁻¹ s⁻¹.
